Results from paper PMC9503769, “Development and Evaluation of a Peptide Heterodimeric Tracer Targeting CXCR4 and Integrin αvβ3 for Pancreatic Cancer Imaging” (Pharmaceutics, 2022).
Where a SMILES comes first, the peptide text is derived from it. [ ]: non-standard residue; d: D form. The star is where a group is joined. X1 = O=C(O)CN1CCN(CC(=O)O)CC(Cc2ccc(NC(=S)*)cc2)N(CC(=O)O)CC1; 2Nal = N[C@@H](Cc1ccc2ccccc2c1)C(=O)O; dNMeK = CN[C@H](CCCCN)C(=O)O

Assays:
[1] = in vivo; parameters: species or system BALB/c nude mice; details: female, BALB/c nude, mouse, iv, total radioactivity
Procedure: All animal studies were conducted in accordance with the guidelines of the Institutional Animal Care and Use Committee of Tongji Medical College of Huazhong University of Science and Technology (2021-S2875; 1 February 2021). Female BALB/c nude mice (5–6 weeks old) were purchased from Beijing HFK Bioscience Co., Ltd. (Beijing, China) and were raised in a specific pathogen-free barrier system. For subcutaneous tumor xenograft model, 1 × 10^7 cells of BxPC3 or MX-1 in 100 μL PBS were injected into the right flanks of nude mice. Animal models were used for follow-up experiments when tumors reached 8~10 mm in diameter. The group setting was kept consistent with PET/CT scan. Each group of mice (n = 4) was injected via tail vein with probes (5.55~7.4 MBq, 150 μL) or co-injected with probes and blockers (10 mg/kg). Mice were euthanized by cervical dislocation under anesthesia 2 h post-injection. Subsequently, tissues of interest were collected, washed, weighed, and counted by a gamma counter. After decay correction, uptake of tissues was expressed as the percentage of injected dose per gram of tissue (%ID/g).

[2] = type: physicochemical
Procedure: ^68Ga-yG5-RGD, ^68Ga-yG5, or ^68Ga-RGD (740 kBq each) were separately added to a mixture of 1.0 mL n-octanol and 1.0 mL PBS, and then the mixtures were thoroughly vortexed for 5 min. Each sample was then centrifuged at 8000 rpm for 4 min. Each sample (100 μL) in organic phase and aqueous phase was collected separately in tubes, 5 tubes for each phase. Radioactive counts per tube of samples were measured by gamma counter, and logP values were calculated by the following formula: logP = log10 (counts in n-octanol/counts in PBS).

[3] = type: in vitro ADME, human
Procedure: (§1) The ^68Ga-yG5-RGD (1.85 MBq, 5 μL) or ^68Ga-yG5 (1.85 MBq, 5 μL) was separately added to 300 μL of PBS or normal human fresh serum, incubated for 2 h at 37 °C. After incubation, the PBS sample was subjected to HPLC for radiochemical purity under the conditions described above. An equal volume of anhydrous acetonitrile was added to serum sample, mixed, and then centrifuged at 13,000 g for 10 min to fully precipitate protein. Following this, the supernatant was collected and authenticated by HPLC.

[4] = tested on: BxPC3 cells; assay: Cell blocking experiment in BxPC3 cells; type: cell-based, human; details: co-incubated with 1000-fold molar excess of unlabeled RGD, AMD3100 or AMD3100 + RGD, all p < 0.001
Procedure: BxPC3 was used for cell blocking experiments. One group was taken as a control and added only ^68Ga-yG5-RGD (74 kBq/well, 50 μL, 1 pmol). Other groups were incubated with the blocking agents (AMD3100, RGD, AMD3100 + RGD unlabeled, 1000 pmol/10 μL, and ^68Ga-yG5-RGD (74 kBq/well, 50 μL). The rest of the procedures were carried out as described above.

[5] = tested on: BxPC3 cells; assay: Cell uptake in BxPC3 cells; type: cell-based, human; details: 74 kBq/well, 30 min, 1 h and 2 h, all p < 0.001, n = 3
Procedure: (§2) BxPC3 cells in the logarithmic growth phase were harvested, counted, and seeded onto 24-well plate with 2 × 10^5 cells/well and cultured overnight. The original culture medium was discarded and fresh DMEM (serum and antibiotic-free) was then added to continue culturing for 0.5 h. Subsequently, each well was separately added ^68Ga-yG5-RGD, ^68Ga-yG5, or ^68Ga-RGD (74 kBq/well, 50 μL) and incubated for 30 min, 1 h, and 2 h (three replicate wells/each time point). At the end of incubation, the supernatant and the cell lysate were separately collected and radioactivity was measured by gamma counter. The cell uptake was expressed as the percentage of total applied radioactivity. Cell uptake study experiment was also performed using MX-1 as a control group for ^68Ga-yG5-RGD. The detailed experimental procedure was the same as above.

[6] = Stability in PBS (radio-HPLC); type: physicochemical; details: 1.85 MBq in 300 μL, 2 h, 37 °C
Procedure: as §1

[7] = tested on: MX-1 cells; assay: Cell uptake in MX-1 cells (negative control); type: cell-based, human; details: all time points, all p < 0.001
Procedure: as §2

| Compound | tissue to tissue ratio at 2 h ([1]; tumor/blood uptake ratio) | tissue to tissue ratio at 2 h ([1]; tumor/kidney uptake ratio) | tissue to tissue ratio at 2 h ([1]; tumor/liver uptake ratio) | tissue to tissue ratio at 2 h ([1]; tumor/muscle uptake ratio) | log P [2] | metabolic-free Gallium-68 observed [3] | cellular uptake in BxPC3 cells with blockers [4] | cellular uptake in BxPC3 cells [5] | proportion of intact tracer [6] | cellular uptake in MX-1 cells [7] |
| --- | --- | --- | --- | --- | --- | --- | --- | --- | --- | --- |
| CN1C(=O)[C@@H](Cc2ccc(O)cc2)NC(=O)CNC(=O)[C@H](Cc2ccc3ccccc3c2)NC(=O)[C@H](CCCNC(=N)N)NC(=O)[C@H]1CCCCNC(=S)Nc1ccc(CC2CN(CC(=O)O)CCN(CC(=O)O)CCN2CC(=O)O)cc1 (some centres unmarked) [^68Ga-yG5, metal not drawn] (cyclo([2Nal]G[dY][dNMeK](X1)R)) | 2.01 ± 0.43 | 0.34 ± 0.06 | 0.13 ± 0.04 | 3.86 ± 1.29 | −0.35 ± 0.09 |  |  |  |  |  |
| N=C(N)NCCC[C@@H]1NC(=O)[C@H](CCCCNC(=S)Nc2ccc(CC3CN(CC(=O)O)CCN(CC(=O)O)CCN3CC(=O)O)cc2)NC(=O)[C@@H](Cc2ccc(O)cc2)NC(=O)[C@H](CC(=O)O)NC(=O)CNC1=O (some centres unmarked) [^68Ga-RGD, metal not drawn, reference compound] | 10.8 ± 2.04 | 0.77 ± 0.06 | 0.96 ± 0.15 | 8.61 ± 0.61 | −3.22 ± 0.02 |  |  |  |  |  |
| CN1C(=O)[C@@H](Cc2ccc(O)cc2)NC(=O)CNC(=O)[C@H](Cc2ccc3ccccc3c2)NC(=O)[C@H](CCCNC(=N)N)NC(=O)[C@H]1CCCCNC(=O)C(CCn1nnc2c1CCC1C(CC2)C1COC(=O)NCCOCCOCCOCCOCCC(=O)NCCCC[C@@H]1NC(=O)[C@@H](Cc2ccc(O)cc2)NC(=O)[C@H](CC(=O)O)NC(=O)CNC(=O)[C@H](CCCNC(=N)N)NC1=O)N1CCN(CC(=O)O)CCN(CC(=O)O)CC1 (some centres unmarked) [^68Ga-yG5-RGD, metal not drawn] | 14.5 ± 0.8 | 0.9 ± 0.29 | 0.46 ± 0.1 | 13.6 ± 0.81 | −2.47 ± 0.04 | less than 1% | significantly decreased | significantly higher than that of ^68Ga-RGD and ^68Ga-yG5 | greater than 99% | significantly lower than that of BxPC3 cells |
